Laboratory results as given in article PMC2735845.

Biological target: RecQ;SSB113 (Escherichia coli;Escherichia coli, UniProt P15043;P0AGE0 1-609;2-178, |P177S)
Test: EMSA

B1: 3'-OH partial duplex (o100/o30) (mixed)
DNA 1: GACGCTCGGTTCGTCTAGGACCGTCATTAGTATGTTGATATACATAGACCTTACCGCAGTGATTCGCTTGTCAGTCCATTGAAGCACAATTACCCACGC
DNA 2: CTAATGACGGTCCTAGACGAACCGAGCGTC
binding result: binds
